Test results reported in the supplement of paper PMC10724198.
“And” between values parts separate entries of the source, which are not always exact repeats. Equal entries are not always repeated. ± gives the standard deviation of the averaged measurements.

What was measured:
Saccharomyces cerevisiae [1] = test: protein stability index of tFT-peptide fusion in wild type (PSI (0-1 scale)); higher = more stable (slower turnover); settings: genetic background: wild type
Saccharomyces cerevisiae [2] = test: protein stability index of tFT-peptide fusion in deletion strain of DOA10 (PSI (0-1 scale)); higher = more stable (slower turnover)
Method: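 MPS profiling in S. cerevisiae of two library types built from selected 12-aa C-degron peptides (IN1, IN2, LN1, LN3, VN2, R1-R5, W1-W3, Atg1 and Rpa12 C-termini): saturation mutagenesis libraries and C-terminal +1 capping libraries (13 aa). Each peptide is fused to the C-terminus of a sfGFP-mCherry timer, after a GGGS linker. Cells are FACS-sorted into 8 mCherry/sfGFP bins and sequenced. PSI runs from 0 (unstable) to 1 (stable), measured once in wild type and in the das1Δ or doa10Δ background.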

Saccharomyces cerevisiae [3] = test: protein stability index of tFT-peptide fusion (C-terminal peptide) (PSI (0-1 scale)); higher = more stable (slower turnover); settings: genetic background: wild type; temperature: 30 C
Saccharomyces cerevisiae [4] = test: protein stability index of tFT-peptide fusion in deletion strain of DAS1 (PSI (0-1 scale)); higher = more stable (slower turnover)
Saccharomyces cerevisiae [5] = test: protein stability index of tFT-peptide fusion (C-terminal peptide) (PSI (0-1 scale)); higher = more stable (slower turnover)
Method: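 MPS profiling in S. cerevisiae of the tFT-X12 degron library: putative degron peptides plus stable controls, 12 aa, fused to the C-terminus of a sfGFP-mCherry timer. Cells are FACS-sorted into 8 mCherry/sfGFP bins and deep-sequenced. PSI runs from 0 (unstable) to 1 (stable). Backgrounds are wild type, das1Δ and doa10Δ at 30 °C, and wild type, das1Δ, cdc34-1 and cdc53-1 at 37 °C; 2-3 technical replicates each.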

[6] = genetic background: cdc34-1, temperature: 37 C
[7] = genetic background: cdc53-1, temperature: 37 C
[8] = genetic background: das1 deletion, temperature: 30 C
[9] = genetic background: das1 deletion, temperature: 37 C
[10] = genetic background: doa10 deletion, temperature: 30 C
[11] = genetic background: wild type, temperature: 30 C
[12] = genetic background: wild type, temperature: 37 C
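Throughout, for protein stability index of tFT-peptide fusion (C-terminal peptide): PSI is a weighted mean of sequencing reads over stability bins, variants kept only with over 10 reads, mCherry proximal and sfGFP distal, peptide attached via GGGS linker.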
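Throughout, for protein stability index of tFT-peptide fusion in deletion strain of DAS1: PSI is a weighted mean of each variant's read distribution over the sorted stability bins, computed only for variants having over 10 reads in total.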
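Throughout, for protein stability index of tFT-peptide fusion in deletion strain of DOA10: PSI per variant is the weighted mean of its sequencing read distribution over the sorted stability bins, counting only variants with over 10 reads summed across bins.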
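Throughout, for protein stability index of tFT-peptide fusion in wild type: PSI derived as read-weighted mean over the 8 sorting bins, only variants exceeding 10 total reads kept, mCherry placed adjacent to the peptide and sfGFP distal.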

| Sequence | protein stability index (Saccharomyces cerevisiae [1]) | protein stability index (Saccharomyces cerevisiae [2]) | also measured |
| --- | --- | --- | --- |
| CLVSLPILLFFRR | 0.0999 | 0.593 | – |
| CLVSLPILLFSR | 0.391 | 0.486 | – |
| CLVSLPALLFFR | 0.0784 | 0.664 | – |
| AITIPMCPLLLR | 0.236 | 0.639 | – |
| CLVSLPIRLFFR | 0.0878 | 0.658 | – |
| AITLPMCPLLGR | 0.603 | 0.607 | – |
| GLEMCSVGCWFR | 0.241 | 0.658 | – |
| GLYVCSVGCWFR | 0.2 | 0.573 | – |
| AITLPMCPLLAR | 0.311 | 0.343 | – |
| PVTRLDAIYFRI | 0.425 | 0.693 | – |
| RVTRLDAIYFFI | 0.471 | 0.495 | – |
| PITLPMCPLLLR | 0.471 | 0.648 | – |
| GLYMCDVGCWFR | 0.59 | 0.699 | – |
| AITLPFCPLLLR | 0.138 | 0.667 | – |
| AITLPMCPLGLR | 0.644 | 0.683 | – |
| RSLRVLPPLYFR | 0.273 | 0.697 | – |
| GLYMCSAGCWFR | 0.427 | 0.696 | – |
| RSLYVLLPLYFR | 0.261 | 0.619 | – |
| RVTRLDAIYFAI | 0.481 | 0.542 | – |
| RVTRLDAIYFVI | 0.194 | 0.233 | – |
| RVTRLDAIYFRW | 0.472 | 0.709 | – |
| AITLPMCPLLMR | 0.302 | 0.606 | – |

| Sequence | protein stability index (Saccharomyces cerevisiae [1]) | protein stability index (Saccharomyces cerevisiae [2]) | also measured |
| --- | --- | --- | --- |
| AITLPMCPLLWR | 0.326 | 0.634 | – |
| LVTRLDAIYFRI | 0.234 | 0.604 | – |
| AITLPMCPELLR | 0.663 | 0.674 | – |
| RSLRDLLPLYFR | 0.507 | 0.702 | – |
| TITLPMCPLLLR | 0.296 | 0.633 | – |
| AITLFMCPLLLR | 0.364 | 0.644 | – |
| FVTRLDAIYFRI | 0.189 | 0.549 | – |
| PSLRVLLPLYFR | 0.285 | 0.679 | – |
| RVTRLDAIEFRI | 0.704 | 0.7 | – |
| RVTRLDAHYFRI | 0.684 | 0.71 | – |
| SLYMCSVGCWFR | 0.387 | 0.644 | – |
| RSLRVGLPLYFR | 0.287 | 0.665 | – |
| GLYMCSVGCWFRV | 0.155 | 0.402 | – |
| GLYMCSVGCLFR | 0.575 | 0.654 | – |
| AITLPMCPLPLR | 0.648 | 0.664 | – |
| RVTRLDAIYIRI | 0.325 | 0.683 | – |
| GLYMCSVGCNFR | 0.632 | 0.648 | – |
| CHVSLPILLFFR | 0.0491 | 0.624 | – |
| AIALPMCPLLLR | 0.231 | 0.632 | – |
| RSLFVLLPLYFR | 0.265 | 0.613 | – |
| RVTSLDAIYFRI | 0.55 | 0.669 | – |
| RSLRVLLPHYFR | 0.663 | 0.683 | – |

| Sequence | protein stability index (Saccharomyces cerevisiae [1]) | protein stability index (Saccharomyces cerevisiae [2]) | also measured |
| --- | --- | --- | --- |
| AITLPMIPLLLR | 0.115 | 0.595 | – |
| CLVSLPIFLFFR | 0.0521 | 0.591 | – |
| RSLRVLLPLYFRY | 0.259 | 0.606 | – |
| HVTRLDAIYFRI | 0.343 | 0.702 | – |
| RSLRVLLPVYFR | 0.278 | 0.632 | – |
| TLYMCSVGCWFR | 0.375 | 0.614 | – |
| AITLPMCYLLLR | 0.0897 | 0.638 | – |
| GLYMCSVGQWFR | 0.636 | 0.671 | – |
| AITLPMCPSLLR | 0.647 | 0.68 | – |
| RSLRVLLPLLFR | 0.371 | 0.661 | – |
| RVTREDAIYFRI | 0.625 | 0.699 | – |
| CLVSPPILLFFR | 0.0809 | 0.651 | – |
| CYVSLPILLFFR | 0.0495 | 0.582 | – |
| CLVSLPILLFAR | 0.161 | 0.239 | – |
| RSCRVLLPLYFR | 0.275 | 0.66 | – |
| GLYMCSVGFWFR | 0.364 | 0.545 | – |
| RVYRLDAIYFRI | 0.321 | 0.587 | – |
| GLDMCSVGCWFR | 0.328 | 0.689 | – |
| RSLDVLLPLYFR | 0.244 | 0.685 | – |
| GLYMTSVGCWFR | 0.275 | 0.709 | – |
| TVTRLDAIYFRI | 0.364 | 0.707 | – |
| RSLRVLTPLYFR | 0.246 | 0.68 | – |

| Sequence | protein stability index (Saccharomyces cerevisiae [1]) | protein stability index (Saccharomyces cerevisiae [2]) | also measured |
| --- | --- | --- | --- |
| RVTRLDAQYFRI | 0.668 | 0.683 | – |
| RVTRLCAIYFRI | 0.178 | 0.339 | – |
| PDKRNHLIKLLN | 0.141 and 0.117 | – | protein stability index (Saccharomyces cerevisiae [3]): 0.194 ± 0.031; protein stability index (Saccharomyces cerevisiae [4]): 0.661 and 0.625; protein stability index (Saccharomyces cerevisiae [5]; [6]): 0.537 ± 0.022; protein stability index (Saccharomyces cerevisiae [5]; [7]): 0.691 ± 0.03; protein stability index (Saccharomyces cerevisiae [5]; [8]): 0.648 ± 0.029; protein stability index (Saccharomyces cerevisiae [5]; [9]): 0.704 ± 0.0085; protein stability index (Saccharomyces cerevisiae [5]; [10]): 0.0937 ± 0.024; protein stability index (Saccharomyces cerevisiae [5]; [11]): 0.119 ± 0.0097; protein stability index (Saccharomyces cerevisiae [5]; [12]): 0.153 ± 0.031 |
| VRGAVGGWRLVG | 0.161 | – | protein stability index (Saccharomyces cerevisiae [3]): 0.228 ± 0.082; protein stability index (Saccharomyces cerevisiae [4]): 0.681; protein stability index (Saccharomyces cerevisiae [5]; [6]): 0.572 ± 0.059; protein stability index (Saccharomyces cerevisiae [5]; [7]): 0.754 ± 0.032; protein stability index (Saccharomyces cerevisiae [5]; [8]): 0.629 ± 0.013; protein stability index (Saccharomyces cerevisiae [5]; [9]): 0.764 ± 0.016; protein stability index (Saccharomyces cerevisiae [5]; [10]): 0.116 ± 0.028; protein stability index (Saccharomyces cerevisiae [5]; [11]): 0.131 ± 0.028; protein stability index (Saccharomyces cerevisiae [5]; [12]): 0.23 ± 0.0039 |
| LKILRQKMNHQG | 0.215 | – | protein stability index (Saccharomyces cerevisiae [4]): 0.656 |
| KKHKKGQKQKKN | 0.577 | – | protein stability index (Saccharomyces cerevisiae [4]): 0.843 |
| PDKRNHLIKLIN | 0.115 | – | protein stability index (Saccharomyces cerevisiae [4]): 0.612 |
| PSLAASFHRVVG | 0.687 | – | protein stability index (Saccharomyces cerevisiae [4]): 0.649 |
| PDKRNHLIKLVN | 0.158 | – | protein stability index (Saccharomyces cerevisiae [4]): 0.645 |
| CTSCGYKFRTEN | 0.45 | – | protein stability index (Saccharomyces cerevisiae [4]): 0.725 |
| VRIAVGGWRLVG | 0.11 | – | protein stability index (Saccharomyces cerevisiae [4]): 0.68 |
| ARWRVGLWFGAS | 0.626 | – | protein stability index (Saccharomyces cerevisiae [4]): 0.666 |
| PSLAASFWREVG | 0.258 | – | protein stability index (Saccharomyces cerevisiae [4]): 0.705 |
| VRGAVGGWRLVR | 0.651 | – | protein stability index (Saccharomyces cerevisiae [4]): 0.682 |
| FSKRWTFRYWVN | 0.0512 | – | protein stability index (Saccharomyces cerevisiae [4]): 0.596 |
| VRGAVGGWRLVGT | 0.678 | – | protein stability index (Saccharomyces cerevisiae [4]): 0.689 |
| LCILRQKMNHQN | 0.115 | – | protein stability index (Saccharomyces cerevisiae [4]): 0.655 |
| LVVYLSCVDCIN | 0.402 | – | protein stability index (Saccharomyces cerevisiae [4]): 0.417 |
| LKILRQKMNHLN | 0.192 | – | protein stability index (Saccharomyces cerevisiae [4]): 0.674 |
| YRGAVGGWRLVG | 0.218 | – | protein stability index (Saccharomyces cerevisiae [4]): 0.664 |
| PDKRNHLIKLPN | 0.592 | – | protein stability index (Saccharomyces cerevisiae [4]): 0.587 |
